Data as given in patent US20210261605A1.
Residue numbers refer to the chain shown, from its start.

B1: FcR9_I (SEQ ID NO: 24), Fc-binding protein containing the amino acid substitution Val192Ile (receptor)
chain: KIEEAMGMRTEDLPKAEVILEPQWNRVLEKDSVTLKCRGAYSPEDNSTQWFHNESLISSQASSYLIDAATVDDSGEYRCQTSLSTLSDPVQLEVHIGWLLLQAPRWEFKEGDPIHLRCHSWKNTALHKVTYLQNGKGRKYFHHNSDFYIPKATLKDSGSYSCRGLIGSKNVSSETVNITITQGGHHHHHH
B2: FcR9_A (SEQ ID NO: 26), Fc-binding protein containing the amino acid substitution Val192Ala (receptor)
chain: B1 chain with I166A
B3: Fc-binding protein FcR9 (SEQ ID NO: 20) (receptor)
chain: B1 chain with I166V
B4: FcR9_F, Fc-binding protein having phenylalanine substituting for valine at position 192 of FcR9 (SEQ ID NO: 20) (receptor)
chain: B1 chain with I166F
B5: FcR35d-containing Fc-binding protein (SEQ ID NO: 7) (receptor)
chain: KIEEAMGMRTGDMPKAEVILEPPWNRVLEQDSVTLKCRGAHSPDDDSTQWFHNERLIPSQASSFIIDSASVDDSGEYRCQTSLSTLSDPVQLEVHIGWLLLQAPRWEFVEGEPIHLRCHSWRNTALHKVMFLQNGKVRKYFHHNSDFVIPKATLEDSGSYSCRGLVGRKKVSSGAVDITVTQGGHHHHHH
B6: FcR36a-containing Fc-binding protein (SEQ ID NO: 11) (receptor)
chain: B5 chain with V166A
B7: FcR35c-containing Fc-binding protein (SEQ ID NO: 5) (receptor)
chain: B5 chain with R55S, D72E, D88E, Q91L, K170N, G174E, D177E, Q182P
B8: FcR36i-containing Fc-binding protein (SEQ ID NO: 9) (receptor)
chain: B5 chain with V166I

Molecular target: IgG1 (product of Sigma-Aldrich)
Test: SPR (Biacore T100), Fc-binding protein immobilized on CM5 chip, IgG1 in flow

Row | Binder | Kd [nM] | koff [s⁻¹] | kon [M⁻¹ s⁻¹]
1 | B1 | 60 | 0.012 | 200000
2 | B2 | 36 | 0.0035 | 100000
3 | B3 | 77 | 0.031 | 410000
4 | B4 | 3300 | 0.3 | 90000
5 | B5 | 39 | 0.031 | 810000
6 | B6 | 95 | 0.13 | 1.4e+06
7 | B7 | 40 | 0.022 | 540000
8 | B8 | 43 | 0.038 | 900000
